From the nanobody polyreactivity screen of Harvey et al. (2022)

Test: yeast display, Sf9 membrane polyspecificity reagent, FACS + sequencing; frameworks hold sequencing errors
Method in brief: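 Nanobodies came from a synthetic yeast display library in Saccharomyces cerevisiae BJ5465, induced with galactose for 36–48 hours and stained for 1 hour at 4 °C with 10% biotinylated, detergent-solubilized Sf9 membrane reagent. Cells were enriched on streptavidin microbeads and then FACS-sorted, with low and high (top ~1%) gates set on anti-HA fluorescence for expression and streptavidin fluorescence for reagent binding. Each polyreactivity label reflects the gate a clone came from. Genes were amplified by colony PCR, sequenced by MiSeq 2 × 250 and filtered by CDR length.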
In the case of “QVQLVESGGGLVQAGGSLRLSCAASGIIFSTYAMGWYRQAPGKERELVAAITSTGSTNYADSVKGRFTISRDNAKNTVYLQMNSLKPEDTAVYYCAARYAGPSPTDTGHDYWGQGTQVTVSS”, the “polyreactivity (PSR sort gate)” value is reported as “low polyreactivity”. With “EEELVESGGGLVQAGGSLRLSCAASGNIFEVNTMGWYRQAPGKERELVAAITSTGSTNYADSVKGRFTISRDNAKNTVYLQMNSLKPVDTAVYYSSATLEWYRYTYEYDYWGQGTQVTVSS” the “polyreactivity (PSR sort gate)” value was “low polyreactivity”. In the case of “QVKLLESGGGLVQAGGSLLLSCAASGSIFDGYSMVWYRQAPGKEREFVASIRFSTGRTYYADSVKGRFTISRDNAKNTVYLQMNSLKPEDTAVYYCNAPQGFVWRYSSWGPYDYWGQGTQVTVSS”, the “polyreactivity (PSR sort gate)” value is reported as “high polyreactivity”. For “QVQLVESGGGLVQAGGSLRLSCAASGSIFVQYAMGWYRQAPGKERELVATISDDGSTNYADSVKGRFTISRDNAKNTVYLQMNSLKPEDTAVYYCAADTYYYVGADDYWGQGTQVTVSS”, the “polyreactivity (PSR sort gate)” value was “low polyreactivity”. In the case of “QVQLVESGGGLVQAGGSLRLSCAASGGTFSLNAMGWYRQAPGKEREFVAGITWGGGRTYYADSVKGRFTISRDNAKNTVYLQMNSLKPEDTAVYYCAAGAWRGPYSGYYYWGQGTQVTVSS”, the “polyreactivity (PSR sort gate)” value is reported as “low polyreactivity”. With “QVQLVESGGCLVQAGGRLRLSSAASGGTFTFYAMGWYRQAPGKERELVATINWSGGSTYYADSVKGRFTISRDNAKNTVYLQMNSLKPEDTAVYYCNAAWPYKSVEYWGQGTQVTVSS” the “polyreactivity (PSR sort gate)” value was “low polyreactivity”. In the case of “QGQLVESGGGLVQAGCSLRLSCAASGSTFSYYAMGWYRQAPGKETELVAAIRKSGGSTYYADSVKGRFTISRDNAKNTVYLQMNSLKPEDTAVNSCVAVFSYYGWYSRYDYWGQGTQVTVSS”, the “polyreactivity (PSR sort gate)” value is reported as “low polyreactivity”. In the case of “QVQVVESGGGLVQAGGSLRLSCAASGSTFSIYAMGCYRQAPGKERELVAAISSSGGSTYYADSVKGRFTISRDNGKNTVYLQMNSLKPEDTAVYYCNKRKYHVRYDYWGQGTQVTVSS”, the “polyreactivity (PSR sort gate)” value is reported as “low polyreactivity”. In the case of “QVQLVESGGGLVQAGGSLRLSCAASGITFFEYAMGWYRQAPGKERELVAVITSGGSTNYADSVKGRFTISRDNAKNTVYLQMNSLKPEDTAVYYCNARVVKYRWWYDYYYWGQGTQVTVSS”, the “polyreactivity (PSR sort gate)” value is reported as “low polyreactivity”. In the case of “QVQLVESGGGLVQAGGSLRLSCAASGSTFVHYAMGWYRQAPGKERELVAAITISGGRTYYADSVKGRFTISRDNAKNTVYLQMNSLKPEDTAVYYCNADHYHRTWGYDYWGQGTQVTVSS”, the “polyreactivity (PSR sort gate)” value is reported as “low polyreactivity”. With “QVQLEESGGGLVQAGGRLRLSCDASGITLLLKAMGWYRQAPGKERELFAAISEGGGSTYYADSVKGRFTISRDNAKNTVYLQMNSLTPEDTAVYYCAADEYTPDYGQGYDYWGQGTQVTVSS” the “polyreactivity (PSR sort gate)” value was “low polyreactivity”. In the case of “QVQLVESGGGLVQAGGSLRLSCAACGNIFGPYAMGWYRQAPGKERELVAAISFTGVSTYYADSVKGRFTISRDNAKNTVYLQMNSLKPEDTAVYYCSYYRSSTYYYWGQGTQVTVSS”, the “polyreactivity (PSR sort gate)” value is reported as “high polyreactivity”. With “QDQLVESGGGLVQAGGRLRLSCAASGRTFSSYAMGWYRQAPGKERELVAAISRRGSSTFYADSVKGRFTISRDNAKNTVYLQMNSLKPEDTAVYYCNADLSGQTRYDYWVQGTQVTVSS” the “polyreactivity (PSR sort gate)” value was “high polyreactivity”. For “QVQLVESGGGLVQAGGSLRLSCAASGSIFGKYAMGWYRQAPGKERELVAAITGRGASTYYADSVKGRFTISRDNAKNTVYLQMNSLKPVDTAVYYCAARASWYYVYPYDYWGQGTQVTVSS”, the “polyreactivity (PSR sort gate)” value was “low polyreactivity”. With “QVQLVESGGCLVQAGGSLRLSCCASARTFWYYTMGWYRQAPGKERELVASISRVTSTYYADSVKGRLTSSRDNAKNTVYLQMNSLKPEDTAVYYCAGLQIRRSYWRTFYWGQGTQVTVSS” the “polyreactivity (PSR sort gate)” value was “low polyreactivity”. With “QVQHVESGGGLVQAGGSLRLSCAASGIIFGGNAMGWYRQAPGKERELVAGISGSGASTYYADSVKGRFTISRDNAKNTVYLQMNSLKPEDTAVYYCAADGYPGDDYWGQGTQVTVSS” the “polyreactivity (PSR sort gate)” value was “high polyreactivity”. In the case of “QVQLVESGGGLVQAGGSLRLSCAASVSTFANNAMGWYRQAPGKERELVASITTDGSTNYADSVKGRFTISRDNAKNTVYLQMNSLKPEDTAVYYCAADYHTPSSFAPIELYDYWGQGTQVTVSS”, the “polyreactivity (PSR sort gate)” value is reported as “low polyreactivity”. With “QVQRVESGGGLVQAGGSLRLSCAASGSIFTSNVRGWYRQAPGKERELDAAITITGTTNYADSVKGRFTISRDNAKNTVYFQMNRLKPEDTAVYYCAKDPVELSPADWRADYDYWGQGSQVTVSS” the “polyreactivity (PSR sort gate)” value was “low polyreactivity”. In the case of “QVQLVESGGGLVQAGGRLRLSCAASGRIFKSNAMGWYRQAPGKERELVATIDVIGTSTYYADSVKGRFTISRDNAKNTVYLQMNSLKPEDTAVYYCAAVGWGGWSDSYDYWGQGTQVTVSS”, the “polyreactivity (PSR sort gate)” value is reported as “low polyreactivity”. With “QVQLVESCGGLVQAGGSLRLICAASGRTFRSYTMGWYRQAPGKERELVAAISYNCGSTYYADSVKGRFTISRDNAKNTVYLQMNSLKPEDTPVYYCAVYTIYGFYYWGQGTQVSVSS” the “polyreactivity (PSR sort gate)” value was “high polyreactivity”. For “QVQLVESGGGLVQAGGSLRLSCAASGRTFGYYAMGWYRQAPGKERELVAAITLSGGSTYYADSVKGRFTISRDNAKNTVYLQMNSLKPEDTAVYYCAAKWWHFYPYDYWGQGTQVTVSS”, the “polyreactivity (PSR sort gate)” value was “high polyreactivity”. With “QVQLVESGGGLVQAGGSLRLSCAASGIIFYYYAMGWYRQAPGKERELVAAINWTGGDTYYADSVKGRFTISRDNAKNTVYLQMNSLKPEDTAVYYCNADSFYSYIYDYWGQGTQVTVSS” the “polyreactivity (PSR sort gate)” value was “low polyreactivity”. For “QVQLVESGGGLVQAGGSLRLSCAASGFTFRDYAMGWYRQAPGKERELVAVISDSGGRTYYADSVKGRFTISRDNAKNTVYLQMNSLKPEDTAVYYCAARGYRSGGGYNYWGQGTQVTVSS”, the “polyreactivity (PSR sort gate)” value was “high polyreactivity”. For “QVQLVESGGGLVQAGGSLRLSCAASGRIFYYNTMGWYRQAPGKERELVAAITTNGGSTYYADSVKGRFTISRDNAKNTVYLQMNSLKPLDTAVYYCKRDRYPYYYAYNYWGQGTQVTVSS”, the “polyreactivity (PSR sort gate)” value was “low polyreactivity”. In the case of “QVQLVESGGGLVQAGGSLRISCAASGSIFSWKDMGWYRQAPGKERELVAAITSGGSTYYADSVKGRFTISRDNAKNTVYLQMNSLKPEDTAVYYCAAVFLLFGFEWSYDYWGQGTQVTVTS”, the “polyreactivity (PSR sort gate)” value is reported as “low polyreactivity”. For “RLVQAGGSLRLSCAASGRIFGTYAMGWYRQAPGKERELVAAITQSGGRTYYADSVKGRFTISRDNAKNSVYLQMNSLKPEDTAVYYCNKVTYRGIGLGYDYWGQGTQVTVSS”, the “polyreactivity (PSR sort gate)” value was “high polyreactivity”. With “QVQLVESGGGLVQAGGSLRLSCAASGSIFKPYAMGWYRQAPGKERELVAVISSGGSTNYADSVKGRFTISRDNAKNTVYLQMNSLKPEDTAVYYCAAEDQYGYDYWGQGTQVTVSS” the “polyreactivity (PSR sort gate)” value was “high polyreactivity”. For “QVQLVESGGGLVQAGGSLRLSCAASGSTFQYKAMGWYRQAPGKERELVAAISRRGGSTYYADSVKRRFTISRDNAKNTVYFQMNSLKPADTAVYYCAKEKGYWSGYDYWGQGTQVTVSS”, the “polyreactivity (PSR sort gate)” value was “high polyreactivity”. In the case of “QVQLVESGGGLVQAGGSLRLSCAASGLIFSWYDMGWYRQAPGKERELVAAITTDGDDTYYADSVKGRFTISRDNAKNTVYLQMNSLKPEDTAVYYCAADSELAIRYPDRDYDSWGQGTQVTVSS”, the “polyreactivity (PSR sort gate)” value is reported as “low polyreactivity”. For “QVQLVESGGGLVQAGGSLRLSCAASGYTFYYSMGWYRQAPGKERELVAAISAGGGRTYYADSVKGRFTISRDNAKNTVYLQMNSLKPEDTAVYYCNRVYRLTAYGYDYWGQGTQVTVSS”, the “polyreactivity (PSR sort gate)” value was “high polyreactivity”. In the case of “QVQLVESVGGFVQAGGSLRLSGAASGRTFNFNTMGWSRQAPGKERELVASITSGGSTNYADSVKVRFTISRDNAKNTVYLQMNILKPEDPAVYYCAVTVSGPYAYDYWGQGTQVTVSS”, the “polyreactivity (PSR sort gate)” value is reported as “low polyreactivity”. For “QDQLVESGGGLVQAGGSLRLICAASGSIFDFYTMGWYRQAPGKERELVAAITYSGGRTYYADSVKGRFTISRDNAKNTVYLQMNSLKPEDTAVYYCAASTGSSAYDDYWGQGTQVTVSS”, the “polyreactivity (PSR sort gate)” value was “high polyreactivity”. In the case of “QDQLVESGGGLVQAGGSLRLSCAASGYTFRYNAMGWYIQATGKERELVATITRGGSTNYADSVKGRFTISRDNAKNTVYLQMNSLKPEDTAVYYCNKEAAPLAFVPSYYGRDYWGQGTEVTVSS”, the “polyreactivity (PSR sort gate)” value is reported as “low polyreactivity”. With “QDQLVESRGGLVQAGGSLRLSCAASGLIFPVYAMGWYRQAPRKEREFVASIWRGGTTYYADSVKGRFTISRDNAKNTVYLQMISLKPEDTAVYYCAAVVYSRGYYWGQGTQVTVSS” the “polyreactivity (PSR sort gate)” value was “high polyreactivity”. In the case of “QVQLVESGGGLVQAGGSLRLSCAASGSIYGRNAMGWYRQAPGKERELFAAISSSGGRTYYADSVKGRFTISRDNAKNTVYLQMNSLKPEDTAVYYCAADASYARYYSQYDYWGQGTQVTVSS”, the “polyreactivity (PSR sort gate)” value is reported as “high polyreactivity”. With “QVQLVESGGGLVQAGGSLRLSCAASGSIFASNAMGWYRQAPGKERELVAAINSGGNTYEDSVKGRFTISRDNAKNTVYLQMNSLKPEDTAVYYCSVVWNWWSGLSPGYPDFDYWGQGTQVTVSS” the “polyreactivity (PSR sort gate)” value was “low polyreactivity”. In the case of “QVQLVESGGGLVQAGGSLRLSCAASGSTFRYYAMGWYRQAPGKERELVAAISARGTSTYYADSVKGRFTISRDNAKNTVYLQMNSLKPEDTAVYYCNDYLHATEYDYWGQGTQVTVSS”, the “polyreactivity (PSR sort gate)” value is reported as “high polyreactivity”. For “QVQLVESGGGLVQAGGSLRLSCAASGSIFSDYTMGWYRQAPGKERELVAAISGIGGSTYYADSVKGRFTISRDNAKNTVYLQMNSLKPEDTAVYYCAADDYYYPYVSHDYWGQGTQVTVSS”, the “polyreactivity (PSR sort gate)” value was “low polyreactivity”. For “QVQLVESGGGLVQAGGSLRLICAASGIIFWAYDMGWYRQAPGKERELVAAITWGGGSTYYADSVKGRFTISRDNAKNTVYLQMNSLKPEDTAVYYCAADRYVFQGYGPEVDYWGQGTQVTVSS”, the “polyreactivity (PSR sort gate)” value was “low polyreactivity”. In the case of “QVQLVESGVGLVQAGGSLLLSCAASGFISGSYAIGWYRQAPGKERELVADISRRGSSTYYADSVKGRFTISRDNAKNTVYLQMNSLKPEDTAVYVCNAVPYGNGAMDYWGQGTQVTVSS”, the “polyreactivity (PSR sort gate)” value is reported as “high polyreactivity”. For “QVQLVESGGGLVQAGGSLRLSCAASGRTFIGYAMGWYIQAPGKERELVAAISPGGSTKYADSVKGRFTISRDNAKNTVYLQMNILKPEDTAVYYCNAYSQSWNFYGDGDYWGQGTQVTVSS”, the “polyreactivity (PSR sort gate)” value was “low polyreactivity”.
